Laboratory results reported in the supplement of paper PMC10567573.

B1: RAB11B (parent)
chain: AVPTDEARAFAEKNNLSFIETSAL
B2: ZNF649 (parent)
chain: DECEKAYFYMSCLVKHKRIHSREK

Variants of: B1
Assay: protein stability index of a GFP-peptide fusion (GPS, HEK-293T) (PSI 1-6); higher = more stable
Conditions: c terminus: a fixed tail appended
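Also: lentivirally expressed fusions sorted by FACS into six bins by GFP to DsRed ratio, PSI derived from sequencing read proportions per bin multiplied by bin number.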

Protein stability index, by site and new letter:
L24: T 3.55; D 5.12; N 4.87; I 3.5; F 2.43; C 3.38; E 4.74; G 4.49; Y 3.21; H 4.29; R 2.8; K 4.15; V 3.57; S 4.25; P 4.55; W 2.47; A 3.49; M 3.13; Q 3.98
S22: A 2.71; V 3.19; C 3.36; N 3.69; W 2.91; P 4.02; G 2.85; E 4.06; Y 1.96; T 2.98; L 3.08; F 2.52; K 3.69; M 2.83; H 2.74; I 2.49; R 3.13; D 4.17; Q 3.56
T21: W 2.76; V 1.52; Y 2
A23: E 4.41; H 2.62; P 2.86; S 3.38; G 3.96; Y 2.43; M 2.3; K 3.28; W 2.15; N 2.88; L 2.4; I 2.09; F 2.14; R 2.47; D 4.11; C 2.9; T 2.77; Q 2.86; V 1.75

Variants of: B2
Assay: as above
Conditions: c terminus: a fixed tail appended

Protein stability index, by site and new letter:
E4: A 1.62; W 1.99; H 2.26; V 1.79; T 2.88; R 2.33; F 1.92; S 2.48; G 1.76; M 1.44; L 2.18; Q 2.34; Y 2.01; N 2; K 1.66; D 2.83; C 2.01; P 2.45; I 2.17
E2: L 2.25; C 1.52; A 2.17; V 1.57; P 2.21; D 2.21; I 1.71; G 2.29; T 3.17; F 2.82; S 1.72; Q 2.49; N 2.62; H 2.03; K 2.17; R 2.08; Y 4.44; M 1.41
D1: L 1.98; T 2.9; F 1.98; K 2; E 2.47; I 1.98; V 1.57; P 2.44; S 2.81; C 1.98; Q 2.44; A 2.41; M 2.06; H 2.61; W 2.2; N 2.72; Y 2.17; G 1.92; R 2.03
A6: L 2.08; M 1.9; Q 3.02; C 2.08; E 3.01; D 3.52; P 2.79; I 1.89; N 2.65; F 1.64; K 2.56; G 2.75; H 2.58
K5: N 2.84; D 3.36; T 2.64; E 2.95; M 2.34; Y 1.82; P 3.51; I 1.79; L 2.61; F 1.67; V 1.81; G 3.13; A 2.71; H 2.79; W 2.82; R 2.5; S 2.44; Q 3.08; C 2.52
C3: P 2.77; K 2.88; V 2.55; W 1.97; I 1.81; N 2.64; A 3.06; G 2.92; S 2.53; R 2.33; F 1.91; H 2.35; M 2.4; Q 3.11; E 3.97; Y 2.67; L 1.8; D 2.98; T 2.9
